Test results reported in paper PMC5681435, “Differential Regulation of G1 CDK Complexes by the Hsp90-Cdc37 Chaperone System” (Cell Reports, 2017).
Numbering of substitutions follows the chain as printed. Names and notes keep the numbering of the source. Values joined by “and” are separate entries in the source; they are usually repeats but may differ in a detail not shown here. Equal entries are not always repeated. “Also recorded” adds a separate entry of the source.

B1: Kcyclin: viral D-type cyclin from Kaposi’s sarcoma-associated herpesvirus (protein)
chain: MATANNPPSGLLDPTLCEDRIFYNILEIEPRFLTSDSVFGTFQQSLTSHMRKLLGTWMFSVCQEYNLEPNVVALALNLLDRLLLIKQVSKEHFQKTGSACLLVASKLRSLTPISTSSLCYAAADSFSRQELIDQEKELLEKLAWRTEAVLATDVTSFLLLKLLGGSQHLDFWHHEVNTLITKALVDPKTGSLPASIISAAGCALLVPANVIPQDTHSGGVVPQLASILGCDVSVLQAAVEQILTSVSDFDLRILDSY
modifications: biotin (on the Avi tag); left off: Avi tag, end not stated, kept
notes: viral D-type cyclin from Kaposi’s sarcoma-associated herpesvirus
B2: p16D84N: p16INK4a mutant in which D84 is mutated to an asparagine (protein)
chain: MEPAAGSSMEPSADWLATAAARGRVEEVRALLEAGALPNAPNSYGRRPIQVMMMGSARVAELLLLHGAEPNCADPATLTRPVHNAAREGFLDTLVVLHRAGARLDVRDAWGRLPVDLAEELGHRDVARYLRAAAGGTRGSNHARIDAAEGPSDIPD
B3: p16M53I: p16INK4a mutant in which M53 is mutated to an isoleucine (protein)
chain: B2 chain with M53I, N84D
B4: p16M53E: p16INK4a M53E mutant (protein)
chain: B2 chain with M53E, N84D
B5: p16D108N: p16INK4a mutant, D108 mutated to an asparagine (protein)
chain: B2 chain with N84D, D108N
B6: Vcyclin: viral D-type cyclin from Herpesvirus saimiri (protein)
chain: MADSPNRLNRAKIDSTTMKDPRVLNNLKLRELLLPKFTSLWEIQTEVTVDNRTILLTWMHLLCESFELDKSVFPLSVSILDRYLCKKQGTKKTLQKIGAACVLIGSKIRTVKPMTVSKLTYLSCDCFTNLELINQEKDILEALKWDTEAVLATDFLIPLCNALKIPEDLWPQLYEAASTTICKALIQPNIALLSPGLICAGGLLTTIETDNTNCRPWTCYLEDLSSILNFSTNTVRTVKDQVSEAFSLYDLEIL

Assays:
[1] = target: T1, CDK6-Cdc37 and CDK6-Cdc37-SfHsp90 complexes (Homo sapiens, UniProt Q00534); assay: Pull-down with Avi-tagged bait from CDK6-Cdc37 and CDK6-Cdc37-SfHsp90 complexes assembled in insect cells; type: binding; conditions: 3-fold molar excess of complex, 4 °C
T1 construct: Full length human CDK4 and CDK6 with an N-terminal; made in house; host or cells: Sf9 insect cells (co-expression, baculovirus)
Protocol: exchange chromatography (HiTrap Q, GE Healthcare). Protein concentrations were determined by NanoDrop2000 UV-Vis Spectrophotometer (Thermo Scientific) or using a Shimadzu UV1800 spectrophotometer. A representative SDS-polyacrylamide gel stained with silver is shown in Figure S4 to illustrate the purity of the GSTCDK4 and GSTCDK6 […]
Avi-tagged proteins (Cdc37, p16INK4a, p16INK4a mutants, Kcyclin and Vcyclin) were biotinylated to provide an affinity tag for the streptavidin-tagged XL665 dye. A substantial amount of biotinylated protein was purified from the recombinant E. coli cells as a result of endogenous BirA activity. Proteins were further modified by incubating 40 µM of the Avi-tagged protein with 10 µg BirA in biotinylation buffer (50 mM Bicine pH 8.3, 10 mM ATP, 10 mM MgOAc, 50 µM d-biotin) at 30°C for 60 minutes. […] The extent of protein biotinylation was monitored by pull downs using High Capacity NeutrAvidin® Agarose Resin (Thermo […]
To assemble the various complexes, 15 µg of Cdc37 was mixed with a molar equivalent of CDK6, and incubated for 1hour at 4 °C. […] The reactions were stopped by addition of 2 x LDS buffer and analysed by SDS-PAGE and subsequent western blotting using an anti-phosphorylated S780 antibody […]
Homogenous time-resolved fluorescence (HTRF) […]

CDK4 = target: T2, CDK4 (Homo sapiens, UniProt P11802); assay: SPR binding to immobilized GSTCDK4; conditions: for Binding to CDK4 by SPR (in words): GSTCDK4 captured on chip
T2 construct: Full length human CDK4 and CDK6 with an N-terminal; made in house; host or cells: Sf9 insect cells (baculovirus, MultiBac)

CDK6 = target: T3, CDK6 (Homo sapiens, UniProt Q00534); assay: SPR binding to immobilized GSTCDK6; conditions: for Kd: GSTCDK6 captured on chip, 4 °C
T3 construct: Full length human CDK4 and CDK6 with an N-terminal; made in house; host or cells: Sf9 insect cells (baculovirus, MultiBac)

CDK4-Cdc37 complex = target: T4, CDK4-Cdc37 complex (Homo sapiens, UniProt P11802); type: binding; conditions: HTRF competition, 8 nM GSTCDK4, 150 nM C-Avi Cdc37
T4 construct: Full length human CDK4 and CDK6 with an N-terminal; made in house; host or cells: GSTCDK4: Sf9 insect cells; Cdc37: E. coli

[2] = Differential scanning fluorimetry (DSF) melting temperature; type: physicochemical; conditions: for Tm: 5 µM protein
CDK4-cyclin D1 = tested on: CDK4-cyclin D1; parameters: method as in Koh et al., 1995; conditions: ref Koh et al., 1995; cited from earlier work
G1 progression = tested on: G1 progression; parameters: method as in Koh et al., 1995; conditions: ref Koh et al., 1995; cited from earlier work

T3 sequence (Q00534 whole entry): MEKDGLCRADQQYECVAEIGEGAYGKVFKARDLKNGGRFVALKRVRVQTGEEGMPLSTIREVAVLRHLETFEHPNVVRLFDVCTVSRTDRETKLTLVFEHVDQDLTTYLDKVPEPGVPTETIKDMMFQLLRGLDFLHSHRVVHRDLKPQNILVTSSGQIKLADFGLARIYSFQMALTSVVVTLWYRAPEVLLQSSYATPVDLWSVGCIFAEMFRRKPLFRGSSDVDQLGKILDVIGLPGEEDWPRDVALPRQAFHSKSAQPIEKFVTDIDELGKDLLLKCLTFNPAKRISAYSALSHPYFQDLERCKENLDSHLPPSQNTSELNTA
T4 sequence (P11802 whole entry, one chain of several): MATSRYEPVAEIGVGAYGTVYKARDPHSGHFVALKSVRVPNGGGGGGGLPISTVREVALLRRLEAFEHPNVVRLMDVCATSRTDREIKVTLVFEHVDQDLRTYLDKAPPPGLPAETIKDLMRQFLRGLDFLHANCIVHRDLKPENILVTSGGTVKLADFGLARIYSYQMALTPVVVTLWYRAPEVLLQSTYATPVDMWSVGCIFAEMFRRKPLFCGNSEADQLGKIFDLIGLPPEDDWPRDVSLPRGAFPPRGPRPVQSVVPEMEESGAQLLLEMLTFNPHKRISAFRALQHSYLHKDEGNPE
T2 sequence (P11802 whole entry): as the sequence (P11802 whole entry, one chain of several) above
T1 sequence (Q00534 whole entry, one chain of several): as the sequence (Q00534 whole entry) above

Molecule | Binding to CDK4 by SPR (in words) (CDK4) | Kd (CDK6) | Displacement of Cdc37 from CDK4-Cdc37 complex (in words) (CDK4-Cdc37 complex) | Tm [2] | ΔTm (versus p16INK4a) [2] | also measured
B1 |  |  |  |  |  | Displacement of CDK6 from CDK6-Cdc37 and CDK6-Cdc37-SfHsp90 (pull-down) [1]: able to displace CDK6; also recorded: could extract CDK6
B2 | binding could be detected but not quantified | 60 nM | unable to displace CDK4 or CDK6 from Cdc37 | 45.1 (±1.9) °C |  | Tm ([2]; listed as D84N): 45.1 °C; Inhibition of CDK4-cyclin D1 kinase activity (CDK4-cyclin D1): as effectively as wild-type p16INK4a; Inhibition of G1 progression (G1 progression): modestly less effective
B3 | binding could be detected but not quantified |  | ineffective | 42.7 (±0.47) °C | −4.9 (±2.33) °C | Reduction in the strength of the interaction with CDK4 versus wild-type p16INK4a (CDK4; enhanced koff rate toward CDK4): > 10^6 fold; Higher rate of dissociation from CDK6 compared with wild-type p16INK4a (CDK6): approximately 10 fold; Tm ([2]; listed as M53I): 42.7 °C
B4 |  |  |  | 43.2 (±0.38) °C | −4.6 (±1.66) °C | 
B5 |  |  | only a modest reduction in activity | 36.4 °C and 36.4 (±3.1) °C | −10.5 (±1.29) °C | 
B6 | the data quality precluded calculation of a Kd | 0.016 ± 0.013 nM |  |  |  | 
